Test results as given in patent publication US20070071773.

Columns and labels:
[1] = target: recombinant human IL-8/CXCL8 (UniProt P10145)
recombinant murine MIP-2 = target: T1, recombinant murine MIP-2 (UniProt P10889)
T1 sequence: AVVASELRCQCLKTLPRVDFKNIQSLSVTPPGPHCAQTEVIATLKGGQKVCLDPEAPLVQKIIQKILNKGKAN

recombinant human IL-8/CXCL8, sequence (P10145 28-99): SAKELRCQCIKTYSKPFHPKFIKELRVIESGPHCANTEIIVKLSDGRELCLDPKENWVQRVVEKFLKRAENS

For “trypsin-like GAS protease (chemokine protease released into the culture supernatant of GAS strain JS95)”, the “IL-8 degradation (Western blot)” value [1] was “JS95 supernatant effectively degraded IL-8” and the “MIP-2 degradation (dot blot)” value (recombinant murine MIP-2) was “The supernatant of JS95 degraded more than 80% of the recombinant MIP-2 protein”.
